According to article PMC6395706, “Unique properties of PTEN-L contribute to neuroprotection in response to ischemic-like stress” (Scientific Reports, 2019):

Assays:
[1] = molecular target: endogenous PTEN-L (mouse (endogenous in primary cortical neurons)); test: proximity ligation; Duolink PLA with anti-GAB2 and anti-PTEN-L antibodies in fixed, permeabilised primary neurons at DIV 9 treated with 50 µM glutamate for 60 min; proximities below 40 nm
PTEN-L:EGFP = molecular target: T1, PTEN-L:EGFP (human, UniProt P60484-2 1-576); test: as above; conditions: partners not purified
T1 construct: human PTEN-L (PTENα), the long translational variant of PTEN with 173 additional N-terminal residues (aa 1-173 unique, aa 174-576 shared with PTEN); gene synthesis with an ATG start codon replacing the alternative CTG start; PCR primers run from the start codon to the last codon before the spacer; A Gly-Gly-Thr-Gly-Gly spacer precedes the C-terminal EGFP; Cloned in the lentiviral transfer vector …

| Molecule | fold decrease of PLA interaction complexes, glutamate against PBS [1] [fold] | fold decrease of PLA interaction complexes, glutamate against PBS (PTEN-L:EGFP) [fold] |
| --- | --- | --- |
| GRB2-associated-binding protein 2 (from UniProt Q9Z1S8 1-665) (natural protein) | 3.98 |  |
| GRB2-associated-binding protein 2 (natural protein, UniProt Q9Z1S8 1-665, looked up, also called Gab2; GAB2; source: endogenous, mouse primary cortical neurons; in cytosolic or nuclear fractions, or in fixed cells) MSGGGGDDVVCTGWLRKSPPEKKLRRYAWKKRWFILRSGRMSGDPDVLEYYKNEHSKKPLRIINLNLCEQVDAGLTFNKKELQDSFVFDIKTSERTFYLVAETEADMNKWVQSICQICGFNQAEESTDSLRNLSSASHGPRSSPAEFSSSQHLLRERKSSAPSHSSQPTLFTFEPPVSSHMQPTLSTSAPQEYLYLHQCISRRTENARSASFSQGTRQKSDTAVQKLAQSNGHCINGVGGQVHGFYSLPKPSRHNTEFKDSTYDLPRSLASHGHTKSSLTGSETDNEDVYTFKMPSNTLCRELGDLLVDNMDVPTTPLSAYQIPRTFTLDKNHNAMTVATPGDSAIAPPPRPPKPSQAETSQWGSIQQRPPISENSRSVAATIPRRNTLPAMDNSRLHRASSCETYEYPARGSGESASWSAEPPGKTAVGRSNSASSDDNYVPMNPGSSTLLAMERPGDNSQSVYIPMSPGPHHFDPLGYPSTALPIHRGPSRGSEIQPPPVNRNLKPDRKAKPTPLDLRNNTVIDELPFKSPVTKSWSRINHTFNSSSSQYCRPISTQSITSTDSGDSEENYVPMQNPVSASPVPSGTNSPAPKKSTGSVDYLALDFQPGSPSPHRKPSTSSVTSDEKVDYVQVDKEKTQALQNTMQEWTDVRQSSEPSKGAKL |  | 4.61 |
